The values that follow come from the nanobody polyreactivity screen of Harvey et al. (2022).

The nature of the data set: yeast display, Sf9 membrane polyspecificity reagent, FACS + sequencing; frameworks hold sequencing errors. The method in brief:
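Galactose induction of a Saccharomyces cerevisiae BJ5465 synthetic nanobody display library ran 36–48 hours. The cells were then stained for 1 hour at 4 °C with 10% biotinylated, detergent-solubilized Sf9 membrane reagent, pulled down on streptavidin microbeads and FACS-sorted into low and high (top ~1%) gates on expression and reagent-binding fluorescence. Labels for polyreactivity follow the gate of origin.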
As to “QVQLVESGGGLVQAGGSLRLSCAASGLTFPPNAMGWYRQAPGKEREFVAVISSGGGSTYYADSVMGRFTISRDHAKNTVYLQMNSLKPEDTAVYNCATEYQDGDTEYYYWGQGTQVTVSS”, the “polyreactivity (PSR sort gate)” value is recorded as “low polyreactivity”. For “QVQLVESGGGLVQAGGSLRLSCAASGLTFPPYAMGWYRQAPGKERELVATISFSTGNTYYADSVKGRFTISRDNAKNTVYLQLNSLKPEDTADYYCNKVFVLPYKFVAWFDSWGQGTQVTVSS” the value was “low polyreactivity”.

Take “QVQLVESGGGLVQAGGSLRLSCAASGLTFPSNAMGWYRQAPGKERELVAAISKRGGRTFYADSVKGRFTISRDNAKNTVYLQMNSLKPEDTAVYYCATPYAYPGTVQYAGYNYWGQGTQVTVSS”: the “polyreactivity (PSR sort gate)” value was “high polyreactivity”. In the case of “QVQLVESGGGLVQAGGSLRLSCAASGLTFPYYAMGWYRQAPGKERELVAAISSSGGSTYYADSVKGRFTISRDNAKNTVYLQMNSLKPEDTAVYYCAAQRYINYDYWGQGTQVTVSS” it was “high polyreactivity”; in that of “QVQLVESGGGLVQAGGSLRLSCAASGLTFPYYVMGWYIQAPGKERELVAAIDDGGGSTYYADSVKGRFTISRDNAKNTVYLQMNSLKPEDTAVYYCAAQVDYLAHYGYWGQGTQVTVSS”, “low polyreactivity”.

As for “QVQLVESGGGLVQAGGSLRLSCAASGLTFQLYTMGWYRQAPGKERELVAAISRSGTRTYYADSVKGRFTISRDNAKNTVYLQMNSLKPEDTAVYYCAARTDGYRNNYWGQGTQVTVSS”, the “polyreactivity (PSR sort gate)” value was “high polyreactivity”. “QVQLVESGGGLVQAGGSLRLSCAASGLTFQVNDMGWYRQAPGKERELVAGITFSGGSTYYPDSVKWRITISRDNAKTTVYLQMNSLKPEDTAVYYCADDTIIGYLYHNVVPTFDYWGQGTQVTVSS”: the “polyreactivity (PSR sort gate)” value is “low polyreactivity”. For “QVQLVESGGGLVQAGGSLRLSCAASGLTFQWNAMGWYRQATGKERELVAVITDIGDSTYYADSVKGRFTISRDNAKNTVYLQMNSLKPEDTAVYYCAADFGTISIDVYSWMDYWGQGTQVTVSS” the value was “low polyreactivity”.

In the case of “QVQLVESGGGLVQAGGSLRLSCAASGLTFQYNTMGWYRQAPGKERELVARINWGGDSTYYADSVKGRFTISRDNAKNTVYLQMNSLTPEDTAVYYCAAPGYSGRYGYYTYYLYDYWGQGTQVTVSS”, the “polyreactivity (PSR sort gate)” value is given as “low polyreactivity”. For “QVQLVESGGGLVQAGGSLRLSCAASGLTFQYYAMGWYRQAPGKERELVATISGRAGRTYYADSVKGRFTISRDNAKNTVYLQMNSLKPEDTAVYYCAAEVDYSLYTWYEYYYWGQGTQVTVSS” the value was “high polyreactivity”; for “QVQLVESGGGLVQAGGSLRLSCAASGLTFRANDMGWYRQAPGKERELVAGITESGDSTYYADSVKGRFTISRDNAKNTVYLQMNSLKPEDTAVYYCAAGSYYWYWYRVGEWYAYEYWGQGTQVTVSS”, “low polyreactivity”.

For “QVQLVESGGGLVQAGGSLRLSCAASGLTFRAYVMGWYRQAPWKERELVAAISVSGGSTYYADSVKGRFTISRDNAKNKVYLQLNSLKPEDTAVYYFAAAYSSSKSSGNYYYWGLGTQVTVSS”, the “polyreactivity (PSR sort gate)” value is “high polyreactivity”. For “QVQLVESGGGLVQAGGSLRLSCAASGLTFRFYTMGWYRQAPGKERELVAAISTSGGSTYYADSVKGRFTISRDNAKNTVYLQMNSLKPEDTAVYYCNAQVWFYYFQSGYDYWGQGTQVTVSS” the value was “low polyreactivity”; for “QVQLVESGGGLVQAGGSLRLSCAASGLTFRIYAMGWYRQAPGKERELVAAISWNGGSTYYADSVKGRFTISRDNAMNTVYLQMNSLKPEDTAVYYFNADPSDRRYPHTWTKMGYWGQGTQVTVSS”, “low polyreactivity”. In the case of “QVQLVESGGGLVQAGGSLRLSCAASGLTFRKYAMGWYRQAPGKERELVAAITRGGSTNYADSVKGRFTISRDNAKNTVYLQMNSLKPEDTAVYYCAAQYTYRFPYPGYATTHDYWGQGTQVTVSS” it was “high polyreactivity”.

In the case of “QVQLVESGGGLVQAGGSLRLSCAASGLTFRKYAMGWYRQAPGKERELVAGISSGGSTYYADSVKGRFTISRDNAKNTVYLQMNSLKPEDTAVYYCAAKALRTMYYWGQGTQVTVSS”, the “polyreactivity (PSR sort gate)” value is reported as “high polyreactivity”. “QVQLVESGGGLVQAGGSLRLSCAASGLTFRKYVMGWYRQAPGKERELVAAISGGGGSTYYADSVKGRFTISRDNAKNTVYLQMNSLKPEDTAVYYCAAVIYRGYYYWGQGTQVTVSS”: the “polyreactivity (PSR sort gate)” value is given as “high polyreactivity”. “QVQLVESGGGLVQAGGSLRLSCAASGLTFRNYAMGLYRQAPGKERELDAAISRSGGSTYYADSVKGRFTISRDYAKNTVYLHMNSLKPEDTAVYYCATRTYRESTYDYWGQGTQVTVSS”: the “polyreactivity (PSR sort gate)” value is listed as “high polyreactivity”. For “QVQLVESGGGLVQAGGSLRLSCAASGLTFRNYAMGWYRQAPGKEREVVADISWSGGSTYYADSVKGRFTISRDNAKITVYLQMNSLKPEDTAVYYCAARFHYPGGPRYYYWGQGTQVTVSS” the value was “high polyreactivity”; for “QVQLVESGGGLVQAGGSLRLSCAASGLTFRRYDMGWNRQAPGKEREFVAAITWSTGSTYYADSVKGRFTISRDNAKNTDYLPMNSLKPEDTAVYYCAARSGYFYRYYKYDYWGQGTQVTVSS”, “high polyreactivity”; for “QVQLVESGGGLVQAGGSLRLSCAASGLTFRVYAMGWYRQAPGKERELVAAITGGGRTYYADSVKGRFTISRDNAKNTVYLQMNSLKPEDTAVYYCAAAGYYVWGQGTQVTVSS”, “high polyreactivity”. In the case of “QVQLVESGGGLVQAGGSLRLSCAASGLTFRWYAMGWYRQAPGKERELVAAISSGGSTNYADSVKGRFTISRDNAKNTVYLQMNSLKPEDTAVDYCNAKGRPWFKYDYWGQGTQVTVSS” it was “high polyreactivity”; in that of “QVQLVESGGGLVQAGGSLRLSCAASGLTFRYYAMGWYRQAPGKERELVAAISSRGASTYYADSVKGRFTISRDNAKNTVYLQMNSLKPEDTAVYYCAVRTYVYHWSFSSLPYDYWGEGTQVTVSS”, “high polyreactivity”.

For the sequence “QVQLVESGGGLVQAGGSLRLSCAASGLTFRYYAMGWYRQEPGKERELVATITRAGRTNYADSVKGRFTISRDNAKNTVYLQMNSLKPEDTAVYYCNAKQSGKYPRVVGYDYWGQGTQVTVSS”, the “polyreactivity (PSR sort gate)” value is on record as “high polyreactivity”. In the case of “QVQLVESGGGLVQAGGSLRLSCAASGLTFRYYAMVWYRQAPGKERELVATITRAGRTNYADSVKGRFTISRDNAKNTVYLQMNSLKPEDTAVYYCATKRVLTGFDSWGQGTQVTVSS” it was “high polyreactivity”; in that of “QVQLVESGGGLVQAGGSLRLSCAASGLTFRYYTMGWYRQAPVKERELVAAISRGGSTTYADSVKGRFTISRVNAKNTVYLQMNSLKPEDTAVYYCAVRPGTWSNYYAGGKKYDYWGLGTQVTVSS”, “high polyreactivity”.

Consider “QVQLVESGGGLVQAGGSLRLSCAASGLTFSAYAMGWYRQAPGKERELVAAITSSGGSTYADSVKGRFTISRDNAKNTVYLQMNSLKPEDTAVYYCAARVVRYGYKYYYWGQGTQVTVSS”, for which the “polyreactivity (PSR sort gate)” value is “low polyreactivity”. “QVQLVESGGGLVQAGGSLRLSCAASGLTFSENAMGWYRQAPGKERELVAAISWSGTTTYYADSVKGRFTISRDNAKNTVYLQMNSLKPEDTAVYYCAADTIFYGYWGQGTQVTVSS”: the “polyreactivity (PSR sort gate)” value is “low polyreactivity”. Consider “QVQLVESGGGLVQAGGSLRLSCAASGLTFSHYAMGWYRQAPGKERELVAGISSRGGNTYYADSVKGRFTISRDYAKNTVYLQMNSLKPEDTAVFYCNAPKPKRAYDYWGQGSQVTVSS”, for which the “polyreactivity (PSR sort gate)” value is “high polyreactivity”. Turning to “QVQLVESGGGLVQAGGSLRLSCAASGLTFSKNARGWYRQSPGKDRELVATISYSSSRTNYADSVKGRFTISRVNAKNPVYLQMNSLKPEDTAVYYCAARVYNGWPTHYDYWGQGTQVTVSS”, the “polyreactivity (PSR sort gate)” value is “high polyreactivity”. In the case of “QVQLVESGGGLVQAGGSLRLSCAASGLTFSKYVMGWYRQAPGKERELVAGISRSSGSTYYADSVKGRFTISRDNAKNTVYLQMNSLKPEDTAVYYCAARARRKYDYWGQGTQVTVSS” it was “high polyreactivity”. Consider “QVQLVESGGGLVQAGGSLRLSCAASGLTFSPYAKGWYRQAPGKERELVASITNGGRTYYADSVKGRFTISRDNAKNTVYLQMNSLKPEDTAVYYCNAAYFGWFNTYNYWGQGTQVTVSS”, for which the “polyreactivity (PSR sort gate)” value is reported as “high polyreactivity”.

For the sequence “QVQLVESGGGLVQAGGSLRLSCAASGLTFSPYAMGWYRQAPGKERELVATITIGGSTKYADSVKGRFTISRDNAKNTVYLQMNSLKPEDPAVYYCAVRSGYVTRRYDYWGQGTQVTVSS”, the “polyreactivity (PSR sort gate)” value was “low polyreactivity”.

Consider “QVQLVESGGGLVQAGGSLRLSCAASGLTFSRNAMGWYRQAPGKERELVAAINWRGGRTYYADSVKGRFIISRDNAKNTVYLQMNSLKPEDTAVYYCAADPANRCMYYWGQGTQVTVSS”, for which the “polyreactivity (PSR sort gate)” value is “high polyreactivity”.

Turning to “QVQLVESGGGLVQAGGSLRLSCAASGLTFSRNGMGWYRQAAGKERELVAAISTSGDSTDYADSVKGRFTISRDYAKNTVYLQMNSLKPEDTAVYYCNRDFSLVVHYNFDYWGQGTQVTVSS”, the “polyreactivity (PSR sort gate)” value was “low polyreactivity”. On to “QVQLVESGGGLVQAGGSLRLSCAASGLTFSRYAMGWYRQAPGKERELVAAIKGRGGSTYYADSVKGRFTISRDNAKNTVYLQMNSLKPEDTAVYYCAATTRGSYSGNRPAYYWGQCTQVTVSS”, for which the “polyreactivity (PSR sort gate)” value was “high polyreactivity”.

Regarding “QVQLVESGGGLVQAGGSLRLSCAASGLTFSSYAMGWYRQAPGKERELVAVISRTGGSTYYADSVKGRFTISRDNAKNTVYLQMNSLKPEDTAVYYCAARSYNGWRYDSWGQGTQVTVSS”, the “polyreactivity (PSR sort gate)” value was “high polyreactivity”. Regarding “QVQLVESGGGLVQAGGSLRLSCAASGLTFSSYTMGWYRQAHGKERELVAAINWNGGDTYYADSVKGRFTISRDNAKNTVYLQMHSLKPEDTAVYYCNADYPYFYRFTAEYDYCGQGTQVTVSS”, the “polyreactivity (PSR sort gate)” value was “low polyreactivity”. As to “QVQLVESGGGLVQAGGSLRLSCAASGLTFSVYAMGWYRQAPGKERELVAAISGSGGSTYYADSVKGRFTISRDNAKNTVYLQMNSLKPEDTAVYYCAARYDVHYDGMDYWGLGTQVTVSS”, the “polyreactivity (PSR sort gate)” value is “low polyreactivity”. In the case of “QVQLVESGGGLVQAGGSLRLSCAASGLTFSYYAMGWYRPAPGKERELVAAITSSGGNTYYADSVKGRFTISRDYAKNTVYLQMNSLKPEDTAGDSCTARRYLRGYGYGYWGQGTQVTVSS” it was “high polyreactivity”; in that of “QVQLVESGGGLVQAGGSLRLSCAASGLTFSYYAMGWYRQAPGKERELVAAISSSGGSTYYADSVKGRFTISRDYAKNTVYLQMTSLKPEDTAVYYCATAASPVRKRYDYWGQGTQVTVSS”, “high polyreactivity”.
